# Assay results published in US20240026407A1, “MODIFICATION OF SAPONINS” (GLAXOSMITHKLINE BIOLOGICALS SA, priority 2020, published 2024).
# Experiments:
# Type in all cases: biochemical, Quillaja saponaria
# [1] = Experiment 6-1: screening of rhamnosidases for derhamnosylation of saponins in treated bark extract (2%), QS-17 2310 to QS-18 2164 (PAR %); settings: TBE 2%, pH 7.5, 30 degC, 18 h; TIC peak area ratio percent, LCMS/MS; negative controls 3.061, 2.429
# [2] = Experiment 6-1: screening of rhamnosidases for derhamnosylation of saponins in treated bark extract (2%), QS-17 2296 to QS-18 2150 (PAR %); settings: TBE 2%, pH 7.5, 30 degC, 18 h; TIC peak area ratio percent of rhamnosylated starting saponin to derhamnosylated product, LCMS/MS; negative controls 4.876, 5.225
# [3] = Experiment 6-1: screening of rhamnosidases for derhamnosylation of saponins in treated bark extract (2%), desglucosyl-QS-17 2134 to QS-21 1988 (PAR %); settings: TBE 2%, pH 7.5, 30 degC, 18 h; TIC peak area ratio percent, LCMS/MS; negative controls 2.719, 2.158
# [4] = Experiment 6-1: specificity of rhamnosidases towards other rhamnose residues (C3 saccharide rhamnose, C28 saccharide rhamnose); settings: TBE 2%, pH 7.5, 30 degC, 18 h; LCMS/MS; negative controls 0.18, 0.17
Molecule,Peak57 (PAR %) [1],QS-17 (PAR %) [2],Peak75 (PAR %) [3],ratio PP/QS-21 [4]
"1063 (protein, listed as Parabacteroides distasonis) MNNKINDATMRIKQSIYIYAFAALLLGGCKSNNELTIPTNLRTEYLTEPIGLDTSSPRFTWEYSGNEEGFKASRYEVRIGTSPDDLRPYAEGMALKPHTRYYWNVTVWDGEGRPCATSETASFETAKFDPSDWSASWITDHKDKEFEPAPLFRKSFPVGKEVKDARVYVASAGYHELFINGERVGTNYLDPGYTHFDKRILYVTHDVTSLLKQGDNAVAAVLGNGWYNEQSVAVWNFHEARWRDRPRLLCELRITYTDGTTEVIGSDETWKTSTGAYTYNNIYSGDKFDARLEEAGWKTAHFDDSKWEAALPAQAPAPLLVAQQMPGIRITEEVRPVSMKRFSDQLYVYSFPKNMSGLCRLKVKGEAGTRITLKHGELLKKDGRLEQGNINVYYHPVKPDEVFQMDVFTLKGTGEEEIFMPSFSYHGFQYVEVESSRPVTLTEENLTGLFMHTDVRPSGSFACSNPLLNKIWEATMQAYRSNLHSIPTDCPQREKNGWTADAHIAIDLGLLGFDGITLYEKWMDDIIDNQREAGEISGIIPSSGWGYGEWPGPVWDAVMFIIPNALYDYYGESRSIERLYPTMLRYLDYLKTKEKDGYLPFGLGDWVYWKATTNNEYTSTAYYYLDYKLMARFASLLGKDAAPYQEKANTLKSLINQKFFNAETGVYAEGTQTAQALALYLGLVPEGKEQLVADKLREVVAGNNYFLDFGLLGSKTVPAMLTKYGYIEDAMKMITKTEAPSWGYWVETMGYSTLPETWTLSPKFADASLNHVFMGDVSAWMMNQLAGINHDDSAPGFRHIRITPHFVKELDWAKGEYHSVRGRIASEWKREGDKVMLTVTIPADCSADIVVGDQTETVSAGTHTFTYPA",2.473%,4.201%,2.240%,0.17
"1054 (protein, listed as Streptosporangium roseum) MEQAVAAALAVTDLRMDGRTEPLGLGESAPRFSWRLAAPGRGRAQSAYRIVVGRECDPLAEGAEVLWDTGEVGSSRTFDIAYEGAELRPRTRYQWRARAADEAGTWGDWSPAHWFETGLGDVTGWTADWIGTPAVPGSQRLPSLENVPRIWAAGPLGPSEARTGGFRTRFTVPGGARPLSAWLVIGGALDPQVHLNGMPVAGEVRDGAFVADAGDLIDSGENVLALRAGAVDGLPGGLCVRLEVVLEGRPALPQLVPVAGESAVTVTSDGRWRAAGEPAPGFEQPGFDDTGWSLAEEVGLHGDPPRGREPVADRPSPYLRREFDVPRPVSRARLYATALGVYELHLNGMRVSADHLAPGWTDYRHRVTYQTYDVTALVAEGGNALGAVLADGWYAGNISWFGSFQYGRRLALRAELEIVHDDGTTTRLRTDSDWRAGSGAIRYADLQNGERQDLAAEPVGWTACGFDDSGWLPAVPVSPPAGRPAAAVAPPVRVHEELAPRAVWESSPGVWIADFGQNVVGWVRLTARAGRDRPVVLRHAEVLDHEGALHLANLRSARATDEFLPRGGAGAETFEPRFTFHGFRYVEVSGLREPLTSDAIRARVAYAAMEPAGEFACSDERLNRLQGNIVRGQRGNFLSIPTDCPQRDERLGWTGDIWAFAPTALFNYDARAFLHSWLTDVVDAQAEDGAVTHVVPDVLSGRGLSPNPREAGSPGWGDAIVMLPWALYRLCGDADAVARYYGPMRRWLAYLDSRSTDGIFPDEGFGDWLSIGADTPKRLVGTAIFALSARQLAELAAALGRADDERACLEVYARVRRAFRAAFVQGPGVVESGTQTAYVLAITAGLLEEAELPRAAARLVRDIEARGGHLSTGFLGTPFLLDALTRSGHLGTAYRLLLQESFPSWLYPVVHGDATTMWERWDGWSHHRGLQDPGMNSFNHYAYGAVGAWMYETIGGLAPASPGYRAIVVRPRPGGELTWARTAYRTRHGRVEIAWRREGGDFTLEVRVPPNTRAEVWVPGGPAGVTESGRPAAESPGVALDRVVDGHAVYEVGSGSYAFHV",2.487%,4.348%,2.160%,0.17
